Measured values taken from a protein production outcome set (Wang et al. 2014).

Assay: label from the status in PepcDB records

In the case of “MEFSGRKWRKLRLAGDQRNASYPHCLQFYLQPPSENISLIEFENLAIDRVKLLKSVENLGVSYVKGTEQYQSKLESELRKLKFSYRENLEDEYEPRRRDHISHFILRLAYCQSEELRRWFIQQEMDLLRFRFSILPKDKIQDFLKDSQLQFEAISDEEKTLREQEIVASSPSLSGLKLGFESIYKIPFADALDLFRGRKVYLEDGFAYVPLKDIVAIILNEFRAKLSKALALTARSLPAVQSDERLQPLLNHLSHSYTGQDYSTQGNVGKISLDQIDLLSTKSFPPCMRQLHKALRENHHLRHGGRMQYGLFLKGIGLTLEQALQFWKQEFIKGKMDPDKFDKGYSYNIRHSFGKEGKRTDYTPFSCLKIILSNPPSQGDYHGCPFRHSDPELLKQKLQSYKISPGGISQILDLVKGTHYQVACQKYFEMIHNVDDCGFSLNHPNQFFCESQRILNGGKDIKKEPIQPETPQPKPSVQKTKDASSALASLNSSLEMDMEGLEDYFSEDS”, the protein production is reported as “failed”.
For “MKLPLIMLTALIALTACTSSSTGRKQVMLFSDAELDKMGAASFEDMKKKTPISTDKATNDFVQCVAKSITKNVAKSVHQGDWEVVVFDSAQVNAFALPSGKIGVYTGILNVTENQDQLGAIIGHEVGHVIEHHSNERLSANKLQNMGMAAATAAVGLSDVENKGLWMAGLGLGLQYGVIMPYSRAHESEADIVGQDLMARSGFEPSASIKLWQNMAKLSKGAPAEFMSTHPSNKTRINQLTEHLPSAMTLYKTDSRPNCQKPKVIPSPKA”, the protein production was “failed”.
In the case of “MAEPKFTSFTTADFINDVDMELFIDAVEKTAPVWVKEMKSRGLLKFSMNRVWNKGEVFRVVMTYEYKDRASFEANIAYLEDTFGKNPVFLQLVTTAKFTTSRCLVVMEV”, the protein production is reported as “not failed”.
With “MKKFFIIGTDTEVGKTYISTKLIEVCEHQNIKSLCLKPVASGQSQFSELCEDVESILNAYKHKFTAAEINLISFNQAVAPHIIAAKTKVDISIENLKQFIEDKYNQDLDILFIEGAGGLLTPYSDHTTQLDLIKALQIPVLLVSAIKVGCINHTLLTINELNRHNIKLAGWIANCNDSNIKYIDEQINTIEELSGYKCSAKISRNADYLDFIDLSKILISPEENE” the protein production was “not failed”.
For “MFLSDPLPAGGDPVTRLTRYVTRELLPPLLAGTLLFTAILSFGYFFISSQWLSGVPVSLIARWIGYQLPDTLVKVLPMAVVLMTVVAFGRMNTERELVAVQAGGIGLGRVTRPAAVVGLLVTALSVWLSLWVAPRANVETRGLYWDALTGAGLSQLVGKTVDLGQGLTLAMQGYDAGARQMQGVRVEKWDKDNFRQGMVVFADAGKFEGNQLSLTGYQVYRVDYAAAAALSGVADNDPAAFREAVQKVFPLVQVPEDRNAALNLDTGLSRKQTLAQYADAIGADAEGWPELITKLTAPGVPQSERDAARVNLNRKLALPFANLVLVLAALPFALRFGRTLGVSLGVALVIAVAYYLLFSVGLTLAGLLPGLPELGVWLANIVFALGGLWLLRRA”, the protein production was “failed”.
In the case of “MAVTDVFARRATLRRSLRLLADFRYEQRDPARFYRTLAADTAAMIGDLWLATHSEPPVGRTLLDVGGGPGYFATAFSDAGVGYIGVEPDPDEMHAAGPAFTGRPGMFVRASGMALPLADDSVDICLSSNVAEHVPRPWQLGTEMLRVTKPGGLVVLSYTVWLGPFGGHEMGLSHYLGGARAAARYVRKHGHPAKNNYGSSLFAVSAAEGLRWAAGTGAALAVFPRYHPRWAWWLTSVPVLREFLVSNLVLVLTP”, the protein production is reported as “failed”.
With “MRETGSRPSRSGERRLSWLWLAMAASLVFAVFAVRPPSRIDNVLYDVLTRANAHPADDSILIVDIDDRSLARMGAWPWGRDTHARMVDQLTQAGAKTIVYDVLFSQPSRDPAQDRALGEAIARSGRVYLPEFLIDGGEQAPPRVVGSISEIARGAAGVGLAHVRFDDDGVVRRMAPFEANGPSLKPDLMTVVHRATRPPGSPDVTRGNEQTLLISFAGPPSIYRHASFASVLDGEVPRELIAGRTVFVGLTAPGLGPAFPTPVTPDAASMTGVQLQASVLDALRSGRMITPAGPWSRVGFSLTLLWLLMIGFMALPPRANLLLTIGLCLVGLAYSAALFWLGHIWLSPITTVIGLQLVALIWGWGRLGQVNDLIGRELARVRAVVRGRGAKPAAFSGDVVTRQASSLGDAITRMDDLRRFSADALFSLPDATLVANEQGRVIAANAAAQALFKPHQATLNGASLADLINLLDPLGRRFELDWPQATDRHDPIDLHLPDGRAFQLQTVLRRDEHGGPAGWIVRLADISILTAAMRQREQALQLLTHDMRSPQTSILALLATTPDLPKETADRIAAYARRTLALADGFVQLARAEVTPVSLEPLDLADVAVEAIDEVWPQSLQRKIRIEQVGGEAPLMVLGDRSVLARTFVNLLGNALKYSPSGSTITVNLAEQPSPSGPVACIAIADQGPGFSREEAATAFRPFQRFERPGHELASNGVGLGLAFVQAAVARHGGEVSCRSEPGVGAEFTVRLPRHGVVQGG” the protein production was “failed”.
In the case of “MTDTLFKIMFEGQVRDGVEPETAKANLAGLFKSETAAVQKLFNGEPIALKRGLVHAEAERYIEALKEAGVEARIEPDQAISFNLNEVGNQASPWTPARQAPQDASPYAPPKAQVGSEHYGHSTLKVFTTNGRIGRLRFLAWSMVQCVALVALIALALIVLNWSLVAGGLLIAVLVVVFVTIGVMIGVQRLHDLGWSGWLLLLNLVPFVGSLFPFLIMLLPGTRGANQYGPPPPPNTRGVKVLGIIWIAMIPVISVASIYYSIGKLAEAELALQTDEYEQSLPYDDEQEPGSALNAPADVIEEPQDQNDKQ”, the protein production is reported as “failed”.
In the case of “MNYEEIVCDANNLYRAYKASVKTSKWKETTQKFMMNFLRYIFSIQDDLINRTLQNGPTQEFTLFERGRVRPITSIQIRDRIIRHVLCDEILLPEVKKHIIYDNCASIKGRGISHQRDRFEVHLRKYYRLYGNEGWILFGDFSKFYDNIIHEIAKRELLRLFDDDEFIDWLLTQIFDGFKIDVSYMTDEEYATCMTDTFNKLEYRNIPESKLTGEKWMEKSVNIGDQLSQVIGIYYPYRIDNYVKYVRSQKFYGRYMDDWYIMNPSKEELLDLLDHIHQIAEEYGIHINRKKTRIVKISSTYKFLQIKYSLTDSGKVIKRINPKRVTAMRRKLKRLAVKVKNEEISYENVENMFRSWMGGFYKLLSKEQRKNLIGLYEDLFEKSIEIVNKKMIIVDKTR”, the protein production is reported as “failed”.
For “MNDNYEVFAIKYATYQQRRRNENFLPADEHDAGLMPLDYYVWLLKSPARTILVDTGFNPPEAAARNREQSRCPIEALRLLDVAPDDIDDVIITHLHYDHAGNLEKIPRARFHIQDKEVEFATGRCMCHAPLRFAYSPADVSNFIHKLYAGRVVFHDGAGVVAPGVEVLHVGGHTKGLQAVRVMTQRGWVVLASDASHFYENLEAARPFPLVADVAEMLDGFERLVRAAGSPSHVVPGHDPAVMTRYPTHPRDPQGIALLHLPTLA”, the protein production was “failed”.
For “MRLITNLLIIAILFSVPHVSIARIPEVVLSKKSAVVSIYVEDKQKIVAGGSGFIIDQNGIIVTNAHVIEPWNKSTTGILYVKKSDGTFLEPTEVIAADAVKDVALVRVKEQNLPFIKLTSNITPTQGDDVVVIGNPLGLETTVTDGIISAIRGEDGFLQISAPISQGSSGSPVLNSKGEAIGVATSIMAGGQNLNFAIPASYVTNLPTQEKAPPVKGLKKRAESPSGFETVTPEDIERDVVQIPEGAVHKGKVLFATDSGGYTYIRIEENGAPLWVAVTQTTISIGDIIEFPDSPPMTGFNSKSMNMTFDKITFAAGIRIVQRGNVEFKSPEEKHLYYAEQYSSMNNTPAAIEEISKAIELNPKKAEYYGKRANYYLQRRMYADSKSDEYQQIVASNRESCRNAVDDLNKAIAINPGNDVFYATQARIFTDSLFCDYANADKAIKLYETAIQLNPKKADYYVEKGWQHKIKNDFSKVLDCAKKALSISPNNEDAHYLYGSYYEENNKYDKALEYYTKGLSVSDNVTFGYFYIDGVMEKTKKYDDAVRIYTDLIKQHPKRLIFYNGRAEYYAKLKNYKKAIADYTTCIKLNPNSEYNYNLRANCYYEDGKKSEALTDYRTACDMKHAESCEMIPIVFADIKRGANWVPVAASSDVNYYYDKKGYTKNKNGVAVAWIRGEITDKEEYIKDIDISEYEKEKYKNVSHVMSRFEVDCPNQKLRVPISLIYAENGNVIRSYEDEKTKYSNIIPNSIGASIHENLCKGAPAKKIGKKK”, the protein production was “failed”.
For “MSIESDMIHVEVVYALPHEQRVFNLVVNNHATVEEIIRQSGVLELYPEIDLAKNKVGVFSRNVKLDATVRDKDRIEIYRPLLADPKEIRRKRAEQAKAAGNADPVTGGKPNALRK”, the protein production was “failed”.
For “MKVSSKLLSITNHHEYLDLVTDGAKFRIYLLDENIIRIRGTFDDDFAPEESYALVKTAWADATDDLIGDERQRVTPIAVELTETADGYTVSNGRYTLEIHAEPFYFEIKDQNGVTVHKDLVKRSFVQDDLGRRFHYSAMGDHDKFYGFGEKSGKLNKFKRRMRMHNTDSLGWNAAKSDPLYKMIPFYIDFNTTTNIASGLYYNNTHDSVFDMDCEHSNYWLRYSYFQCDGGDLDVFFIGGPTIKQVVEHYTDLTGKSAMMPLPSLGYMGSTMFYTELDQDADQAILDFIDTCKKNGIPCDGFFLSSGYTSGKDGKRYVFNWNKKRFPDPQKFVAELKKRGALLAPNIKPGMLVTHPLADEFMEKDAYIKTPDGQGSQVDQYWGGDAHFVDFTNPHGRDAWEQKMTEALLSIGITSIWNDNNEYEINDTQAVVDAEGQKSTIGALKPIMPTMMAKAAKDAINRYDATVRPYLVNRAGFAGIQRYAQTWAGDNYTSWTNVKYNIPTILGMGLSGVANQGCDIGGFDGPLPEPELFVRWVQNGIFQPRFSIHSCNNDNTVTEPWTYPAYTKYIRAAIQLRYSLVPYLYSLLYEASTKGSPIMRPLVYEFQDDPQVAEESFEFMLGASLLVANVVDKGQTAKSVYLPAGVDWLDLKTSQYYTGGQTITIPVDLGSIPMFLKAGSIVPQSKGLMNLHNDVIDKLDVLIEPSRDAEFVVYEDDGVTNNYRQGETLETTIKTTATADGVVIDFSRVGQYQTQVKTMALAVCCPKIAPLSVDLADQSLPRYLNAAKFADAAEGWYFDGESRQVQIKYANPEVAGYAVKVNFSVKDLISI”, the protein production was “failed”.
In the case of “MEVAPSFSSVLKDCAVIEGQDFVLQCSVRGTPVPRITWLLNGQPIQYARSTCEAGVAELHIQDALPEDHGTYTCLAENALGQVSCSAWVTVH”, the protein production is reported as “not failed”.
For “MTFSANFSLVLPEVVLAIAALVLLVAGTFRGKVGAIFTLAAVASLIAAAATAVLGPKGVAFGGVYVADAAATYAKVAIYLSSAVAVVLGDRWLAQRGDQKFEYAVLVILAALGMGVTASAGDLISLYIGVELQSLALYVLAAMRRDDAKSSEAGLKYFVLGALSSGLLLYGSSLIYGFTGSTHFSQIALAAAHGGSHGVGLLFGLVFVICGLAFKVSAAPFHMWTPDVYEGAPTPVVGFFSAAPKLAAMMMFARVLGDAFPASEEQWRQILVIAALLSVFVGAFAGLAQSNLKRLWAYSSIANVGYALLGVAAGGEVGLQSMLIFMTLYMVDVTGFFACLQALNRDGKPMETIQDMAGLVKQRPGIALAMTAFSLSALGLPPFSGFWAKYFVFKAAMGSGDVMLQWAAVIGLVGSVVAAFYYLRLIKAMWFDDAAGAVDAPSPSARAVGFAAAIFSFPIVLVALVWLEPAAKAAAAAFGHA”, the protein production was “failed”.
With “MVKHQQTPAYIAAILYSFIIGLSFLFVKIALQTAEPFDILAHRFTIAFAAATVPILFGWVKLSILVKDVIDILPLALLYPALFFSFQAFGLVYSSSSEAGIIQAAIPIFTMVFAAYVLKERPTWTQKGFTVLSVAGVMFIFVMKGVDVESASLKGSLLILLSALSSAMYNTAARKMTQRFKLTELTYIMSAIGFVVFNAIALVRHGAAGTVGTYFLPFREPGFVLAIVYLGVLSSLVTSFLSNYTLSRIEAFKMSAFNHVSTIVTMIAGFVILNESLAWYHLAGAVCIMIGVVGSNINLEKKTKRPGMPAKK” the protein production was “failed”.
